# Legend:
# [1] = tested on: 3-phosphoglycerate dehydrogenase (PGD); assay: PGD enzyme activity in crude extracts (McKitrick and Pizer test); type: biochemical, Escherichia coli; settings: crude extract of strain expressing plasmid-encoded serA allele; backward reaction, NADH oxidation at 340 nm
# Excerpt: (§1) For example, the PGD activity can be determined in analogy with the method described by McKitrick and Pizer (1980, J. Bacteriol. 141:235-245). The backward reaction is used to measure the enzyme activity in an assay sample which contains phosphohydroxypyruvate and NADH/H^+. The reaction is started by adding enzyme and is monitored in a spectrophotometer by way of the decrease in extinction at 340 nm which is caused by oxidation of the NADH/H^+.
# (§2) At an optical density of 1.0, serA expression was in each case induced by adding 0.4 mM […] and the culture was incubated for a further 3 hours. The cells were subsequently harvested by centrifugation, washed and resuspended in 2 ml of buffer (100 mM K-phosphate, pH 7.0; 10 mM MgCl2; 1 mM dithiothreitol). The cells were disrupted using a French press (Spectronic Instruments, Inc. Rochester, N.Y., USA) at a pressure of 18 000 psi. The crude extracts were clarified by centrifugation at 30 000 g and PGD activity was determined using the McKitrick and Pizer test (1980, J. Bacteriol. 141:235-245).
# [2] = target: 3-phosphoglycerate dehydrogenase (PGD); assay: Inhibition of PGD activity by L-serine, inhibitor constant Ki; type: biochemical, Escherichia coli; settings: Ki = inhibitor concentration at which activity is 50% of activity without inhibitor
# Excerpt: as §1, §2
molecule,measurement,setting,value
"serA49: E. coli PGD variant with replacement G349P (protein, UniProt P0A9T0 2-410, looked up, variant G349P) D-3-phosphoglycerate …: AKVSLEKDKIKFLLVEGVHQKALESLRAAGYTNIEFHKGALDDEQLKESIRDAHFIGLRSRTHLTEDVINAAEKLVAIGCFCIGTNQVDLDAAAKRGIPVFNAPFSNTRSVAELVIGELLLLLRGVPEANAKAHRGVWNKLAAGSFEARGKKLGIIGYGHIGTQLGILAESLGMYVYFYDIENKLPLGNATQVQHLSDLLNMSDVVSLHVPENPSTKNMMGAKEISLMKPGSLLINASRGTVVDIPALCDALASKHLAGAAIDVFPTEPATNSDPFTSPLCEFDNVLLTPHIGGSTQEAQENIGLEVAGKLIKYSDNGSTLSAVNFPEVSLPLHGGRRLMHIHENRPPVLTALNKIFAEQGVNIAAQYLQTSAQMGYVVIDIEADEDVAEKALQAMKAIPGTIRARLLY",Activity,[1],0.05 units/mg
same,Ki,[2],6 mM
"serA206: E. coli PGD variant with replacement T372P (protein, UniProt P0A9T0 2-410, looked up, variant T372P) D-3-phosphoglycerate …: AKVSLEKDKIKFLLVEGVHQKALESLRAAGYTNIEFHKGALDDEQLKESIRDAHFIGLRSRTHLTEDVINAAEKLVAIGCFCIGTNQVDLDAAAKRGIPVFNAPFSNTRSVAELVIGELLLLLRGVPEANAKAHRGVWNKLAAGSFEARGKKLGIIGYGHIGTQLGILAESLGMYVYFYDIENKLPLGNATQVQHLSDLLNMSDVVSLHVPENPSTKNMMGAKEISLMKPGSLLINASRGTVVDIPALCDALASKHLAGAAIDVFPTEPATNSDPFTSPLCEFDNVLLTPHIGGSTQEAQENIGLEVAGKLIKYSDNGSTLSAVNFPEVSLPLHGGRRLMHIHENRPGVLTALNKIFAEQGVNIAAQYLQPSAQMGYVVIDIEADEDVAEKALQAMKAIPGTIRARLLY",Activity,[1],0.05 units/mg
"serA412: E. coli PGD variant with replacement G349V (protein, UniProt P0A9T0 2-410, looked up, variant G349V) D-3-phosphoglycerate …: AKVSLEKDKIKFLLVEGVHQKALESLRAAGYTNIEFHKGALDDEQLKESIRDAHFIGLRSRTHLTEDVINAAEKLVAIGCFCIGTNQVDLDAAAKRGIPVFNAPFSNTRSVAELVIGELLLLLRGVPEANAKAHRGVWNKLAAGSFEARGKKLGIIGYGHIGTQLGILAESLGMYVYFYDIENKLPLGNATQVQHLSDLLNMSDVVSLHVPENPSTKNMMGAKEISLMKPGSLLINASRGTVVDIPALCDALASKHLAGAAIDVFPTEPATNSDPFTSPLCEFDNVLLTPHIGGSTQEAQENIGLEVAGKLIKYSDNGSTLSAVNFPEVSLPLHGGRRLMHIHENRPVVLTALNKIFAEQGVNIAAQYLQTSAQMGYVVIDIEADEDVAEKALQAMKAIPGTIRARLLY",Activity,[1],0.05 units/mg
same,Ki,[2],5 mM
"serA223: E. coli PGD variant with replacement T372E (protein, UniProt P0A9T0 2-410, looked up, variant T372E) D-3-phosphoglycerate …: AKVSLEKDKIKFLLVEGVHQKALESLRAAGYTNIEFHKGALDDEQLKESIRDAHFIGLRSRTHLTEDVINAAEKLVAIGCFCIGTNQVDLDAAAKRGIPVFNAPFSNTRSVAELVIGELLLLLRGVPEANAKAHRGVWNKLAAGSFEARGKKLGIIGYGHIGTQLGILAESLGMYVYFYDIENKLPLGNATQVQHLSDLLNMSDVVSLHVPENPSTKNMMGAKEISLMKPGSLLINASRGTVVDIPALCDALASKHLAGAAIDVFPTEPATNSDPFTSPLCEFDNVLLTPHIGGSTQEAQENIGLEVAGKLIKYSDNGSTLSAVNFPEVSLPLHGGRRLMHIHENRPGVLTALNKIFAEQGVNIAAQYLQESAQMGYVVIDIEADEDVAEKALQAMKAIPGTIRARLLY",Activity,[1],0.04 units/mg
"serA414: E. coli PGD variant with replacement G349A (protein, UniProt P0A9T0 2-410, looked up, variant G349A) D-3-phosphoglycerate …: AKVSLEKDKIKFLLVEGVHQKALESLRAAGYTNIEFHKGALDDEQLKESIRDAHFIGLRSRTHLTEDVINAAEKLVAIGCFCIGTNQVDLDAAAKRGIPVFNAPFSNTRSVAELVIGELLLLLRGVPEANAKAHRGVWNKLAAGSFEARGKKLGIIGYGHIGTQLGILAESLGMYVYFYDIENKLPLGNATQVQHLSDLLNMSDVVSLHVPENPSTKNMMGAKEISLMKPGSLLINASRGTVVDIPALCDALASKHLAGAAIDVFPTEPATNSDPFTSPLCEFDNVLLTPHIGGSTQEAQENIGLEVAGKLIKYSDNGSTLSAVNFPEVSLPLHGGRRLMHIHENRPAVLTALNKIFAEQGVNIAAQYLQTSAQMGYVVIDIEADEDVAEKALQAMKAIPGTIRARLLY",Activity,[1],0.05 units/mg
same,Ki,[2],1 mM
"serA234: E. coli PGD variant with replacement T372K (protein, UniProt P0A9T0 2-410, looked up, variant T372K) D-3-phosphoglycerate …: AKVSLEKDKIKFLLVEGVHQKALESLRAAGYTNIEFHKGALDDEQLKESIRDAHFIGLRSRTHLTEDVINAAEKLVAIGCFCIGTNQVDLDAAAKRGIPVFNAPFSNTRSVAELVIGELLLLLRGVPEANAKAHRGVWNKLAAGSFEARGKKLGIIGYGHIGTQLGILAESLGMYVYFYDIENKLPLGNATQVQHLSDLLNMSDVVSLHVPENPSTKNMMGAKEISLMKPGSLLINASRGTVVDIPALCDALASKHLAGAAIDVFPTEPATNSDPFTSPLCEFDNVLLTPHIGGSTQEAQENIGLEVAGKLIKYSDNGSTLSAVNFPEVSLPLHGGRRLMHIHENRPGVLTALNKIFAEQGVNIAAQYLQKSAQMGYVVIDIEADEDVAEKALQAMKAIPGTIRARLLY",Activity,[1],0.05 units/mg
"serA415: E. coli PGD variant with replacement G349K (protein, UniProt P0A9T0 2-410, looked up, variant G349K) D-3-phosphoglycerate …: AKVSLEKDKIKFLLVEGVHQKALESLRAAGYTNIEFHKGALDDEQLKESIRDAHFIGLRSRTHLTEDVINAAEKLVAIGCFCIGTNQVDLDAAAKRGIPVFNAPFSNTRSVAELVIGELLLLLRGVPEANAKAHRGVWNKLAAGSFEARGKKLGIIGYGHIGTQLGILAESLGMYVYFYDIENKLPLGNATQVQHLSDLLNMSDVVSLHVPENPSTKNMMGAKEISLMKPGSLLINASRGTVVDIPALCDALASKHLAGAAIDVFPTEPATNSDPFTSPLCEFDNVLLTPHIGGSTQEAQENIGLEVAGKLIKYSDNGSTLSAVNFPEVSLPLHGGRRLMHIHENRPKVLTALNKIFAEQGVNIAAQYLQTSAQMGYVVIDIEADEDVAEKALQAMKAIPGTIRARLLY",Activity,[1],0.03 units/mg
same,Ki,[2],15 mM
"serA410: E. coli PGD variant with replacement G349S (protein, UniProt P0A9T0 2-410, looked up, variant G349S) D-3-phosphoglycerate …: AKVSLEKDKIKFLLVEGVHQKALESLRAAGYTNIEFHKGALDDEQLKESIRDAHFIGLRSRTHLTEDVINAAEKLVAIGCFCIGTNQVDLDAAAKRGIPVFNAPFSNTRSVAELVIGELLLLLRGVPEANAKAHRGVWNKLAAGSFEARGKKLGIIGYGHIGTQLGILAESLGMYVYFYDIENKLPLGNATQVQHLSDLLNMSDVVSLHVPENPSTKNMMGAKEISLMKPGSLLINASRGTVVDIPALCDALASKHLAGAAIDVFPTEPATNSDPFTSPLCEFDNVLLTPHIGGSTQEAQENIGLEVAGKLIKYSDNGSTLSAVNFPEVSLPLHGGRRLMHIHENRPSVLTALNKIFAEQGVNIAAQYLQTSAQMGYVVIDIEADEDVAEKALQAMKAIPGTIRARLLY",Activity,[1],0.04 units/mg
same,Ki,[2],2 mM
"serA411: E. coli PGD variant with replacement G349T (protein, UniProt P0A9T0 2-410, looked up, variant G349T) D-3-phosphoglycerate …: AKVSLEKDKIKFLLVEGVHQKALESLRAAGYTNIEFHKGALDDEQLKESIRDAHFIGLRSRTHLTEDVINAAEKLVAIGCFCIGTNQVDLDAAAKRGIPVFNAPFSNTRSVAELVIGELLLLLRGVPEANAKAHRGVWNKLAAGSFEARGKKLGIIGYGHIGTQLGILAESLGMYVYFYDIENKLPLGNATQVQHLSDLLNMSDVVSLHVPENPSTKNMMGAKEISLMKPGSLLINASRGTVVDIPALCDALASKHLAGAAIDVFPTEPATNSDPFTSPLCEFDNVLLTPHIGGSTQEAQENIGLEVAGKLIKYSDNGSTLSAVNFPEVSLPLHGGRRLMHIHENRPTVLTALNKIFAEQGVNIAAQYLQTSAQMGYVVIDIEADEDVAEKALQAMKAIPGTIRARLLY",Activity,[1],0.04 units/mg
same,Ki,[2],3 mM
"serA229: E. coli PGD variant with replacement T372R (protein, UniProt P0A9T0 2-410, looked up, variant T372R) D-3-phosphoglycerate …: AKVSLEKDKIKFLLVEGVHQKALESLRAAGYTNIEFHKGALDDEQLKESIRDAHFIGLRSRTHLTEDVINAAEKLVAIGCFCIGTNQVDLDAAAKRGIPVFNAPFSNTRSVAELVIGELLLLLRGVPEANAKAHRGVWNKLAAGSFEARGKKLGIIGYGHIGTQLGILAESLGMYVYFYDIENKLPLGNATQVQHLSDLLNMSDVVSLHVPENPSTKNMMGAKEISLMKPGSLLINASRGTVVDIPALCDALASKHLAGAAIDVFPTEPATNSDPFTSPLCEFDNVLLTPHIGGSTQEAQENIGLEVAGKLIKYSDNGSTLSAVNFPEVSLPLHGGRRLMHIHENRPGVLTALNKIFAEQGVNIAAQYLQRSAQMGYVVIDIEADEDVAEKALQAMKAIPGTIRARLLY",Activity,[1],0.04 units/mg
"serA21: E. coli PGD variant with replacement T372D (protein, UniProt P0A9T0 2-410, looked up, variant T372D) D-3-phosphoglycerate …: AKVSLEKDKIKFLLVEGVHQKALESLRAAGYTNIEFHKGALDDEQLKESIRDAHFIGLRSRTHLTEDVINAAEKLVAIGCFCIGTNQVDLDAAAKRGIPVFNAPFSNTRSVAELVIGELLLLLRGVPEANAKAHRGVWNKLAAGSFEARGKKLGIIGYGHIGTQLGILAESLGMYVYFYDIENKLPLGNATQVQHLSDLLNMSDVVSLHVPENPSTKNMMGAKEISLMKPGSLLINASRGTVVDIPALCDALASKHLAGAAIDVFPTEPATNSDPFTSPLCEFDNVLLTPHIGGSTQEAQENIGLEVAGKLIKYSDNGSTLSAVNFPEVSLPLHGGRRLMHIHENRPGVLTALNKIFAEQGVNIAAQYLQDSAQMGYVVIDIEADEDVAEKALQAMKAIPGTIRARLLY",Activity,[1],0.05 units/mg
